Numbering of substitutions follows the chain as printed. In names and notes the source's numbering stands. Several values for one entry are separate records, joined by “and”; a condition that tells them apart may be missing. Equal entries are not always repeated.
B1: KB001 mouse Fab VH I51Q/M92I (Fab, V domains shown)
VH: EVQLKQSGPGLVAPSQSLSITCTVSGFSLSIYSVHWVRQPPGKGLEWLGMQWGGGSSDYNSALKSRLSISKDNSKSQVFLKMNSLQTDDTAIYYCARNGNFYAMDYWGQGTSVTVSS
VL: QIVLTQSPAIMSASLGERVTMTCTASSSVSSSFLHWYQQKPGSSPQLWIYSTSNLASGVPARFSGSGSGTSYSLTISSMEAEDAATYYCHQYHHSPYIYTFGGGTKLEIK
B2: KB001 mouse Fab VH Y59F (Fab, V domains shown)
VH: B1 VH with Q51I, Y59F, I92M
VL: B1 VL
B3: KB001 mouse Fab VH G53S (Fab, V domains shown)
VH: B1 VH with Q51I, G53S, I92M
VL: B1 VL
B4: KB001 mouse Fab VH N60P (Fab, V domains shown)
VH: B1 VH with Q51I, N60P, I92M
VL: B1 VL
B5: KB001 mouse Fab VH S57T (Fab, V domains shown)
VH: B1 VH with Q51I, S57T, I92M
VL: B1 VL
B6: KB001 mouse Fab VH S56E (Fab, V domains shown)
VH: B1 VH with Q51I, S56E, I92M
VL: B1 VL
B7: KB001 mouse Fab VH G55D (Fab, V domains shown)
VH: B1 VH with Q51I, G55D, I92M
VL: B1 VL
B8: KB001 mouse Fab VH G53P (Fab, V domains shown)
VH: B1 VH with Q51I, G53P, I92M
VL: B1 VL
B9: KB001 mouse Fab VH D58S (Fab, V domains shown)
VH: B1 VH with Q51I, D58S, I92M
VL: B1 VL
B10: KB001 mouse Fab VH S56T (Fab, V domains shown)
VH: B1 VH with Q51I, S56T, I92M
VL: B1 VL
B11: KB001 mouse Fab VH G55N (Fab, V domains shown)
VH: B1 VH with Q51I, G55N, I92M
VL: B1 VL
B12: KB001 mouse Fab VH S56M (Fab, V domains shown)
VH: B1 VH with Q51I, S56M, I92M
VL: B1 VL
B13: KB001 mouse Fab VH S56L (Fab, V domains shown)
VH: B1 VH with Q51I, S56L, I92M
VL: B1 VL
B14: KB001 mouse Fab VH S61Y (Fab, V domains shown)
VH: B1 VH with Q51I, S61Y, I92M
VL: B1 VL
B15: KB001 mouse Fab VH Y59M/S57I (Fab, V domains shown)
VH: B1 VH with Q51I, S57I, Y59M, I92M
VL: B1 VL
B16: KB001 mouse Fab VH Y59R (Fab, V domains shown)
VH: B1 VH with Q51I, Y59R, I92M
VL: B1 VL
B17: KB001 mouse Fab VH S57M (Fab, V domains shown)
VH: B1 VH with Q51I, S57M, I92M
VL: B1 VL
B18: KB001 mouse Fab VH S56N (Fab, V domains shown)
VH: B1 VH with Q51I, S56N, I92M
VL: B1 VL
B19: KB001 mouse Fab VH S57H (Fab, V domains shown)
VH: B1 VH with Q51I, S57H, I92M
VL: B1 VL
B20: KB001 mouse Fab VH D58G (Fab, V domains shown)
VH: B1 VH with Q51I, D58G, I92M
VL: B1 VL
B21: KB001 mouse Fab VH S56P (Fab, V domains shown)
VH: B1 VH with Q51I, S56P, I92M
VL: B1 VL
B22: KB001 mouse Fab VH N60T (Fab, V domains shown)
VH: B1 VH with Q51I, N60T, I92M
VL: B1 VL
B23: KB001 mouse Fab VH Y59T (Fab, V domains shown)
VH: B1 VH with Q51I, Y59T, I92M
VL: B1 VL
B24: KB001 mouse Fab VH I51V (Fab, V domains shown)
VH: B1 VH with Q51V, I92M
VL: B1 VL
B25: KB001 mouse Fab VH N60S (Fab, V domains shown)
VH: B1 VH with Q51I, N60S, I92M
VL: B1 VL
B26: KB001 mouse Fab VH S57R (Fab, V domains shown)
VH: B1 VH with Q51I, S57R, I92M
VL: B1 VL
B27: KB001 mouse Fab VH N60Q (Fab, V domains shown)
VH: B1 VH with Q51I, N60Q, I92M
VL: B1 VL
B28: KB001 mouse Fab VH S61W (Fab, V domains shown)
VH: B1 VH with Q51I, S61W, I92M
VL: B1 VL
B29: KB001 mouse Fab VH Y59K (Fab, V domains shown)
VH: B1 VH with Q51I, Y59K, I92M
VL: B1 VL

Target: HRgpA-6H (Porphyromonas gingivalis) (UniProt P28784)
Sequence of UniProt P28784 (P28784 228-860 limits assumed): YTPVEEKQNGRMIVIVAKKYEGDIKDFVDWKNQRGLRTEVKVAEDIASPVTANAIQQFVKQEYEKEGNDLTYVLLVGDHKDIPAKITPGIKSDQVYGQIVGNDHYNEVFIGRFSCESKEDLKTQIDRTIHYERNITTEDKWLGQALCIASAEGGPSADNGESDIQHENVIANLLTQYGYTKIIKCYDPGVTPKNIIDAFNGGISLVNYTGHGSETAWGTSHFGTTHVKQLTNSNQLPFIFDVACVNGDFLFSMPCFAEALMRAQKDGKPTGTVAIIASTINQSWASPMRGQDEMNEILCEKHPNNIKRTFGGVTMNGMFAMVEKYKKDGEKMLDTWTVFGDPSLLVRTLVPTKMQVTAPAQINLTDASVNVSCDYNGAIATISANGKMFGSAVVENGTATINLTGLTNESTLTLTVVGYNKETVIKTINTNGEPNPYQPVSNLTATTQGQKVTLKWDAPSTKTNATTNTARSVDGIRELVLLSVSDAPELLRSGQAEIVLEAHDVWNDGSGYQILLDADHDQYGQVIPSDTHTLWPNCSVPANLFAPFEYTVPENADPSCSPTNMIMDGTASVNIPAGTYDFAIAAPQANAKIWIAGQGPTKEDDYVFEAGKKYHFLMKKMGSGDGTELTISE
Test: ELISA, coated HRgpA-6H

Binder	OD450 nm	Ratio OD(Variant)/OD(WT)
B1	0.722	0.817
B2	0.668	0.845
B3	0.686	0.861
B4	0.44 and 0.428	0.892 and 0.867
B5	0.843 and 0.849	0.958 and 0.965
B6	0.772 and 0.713	0.878 and 0.811
B7	0.697	0.866
B8	0.754 and 0.716	0.947 and 0.899
B9	0.646	0.817
B10	0.838 and 0.844 and 0.853	0.953 and 0.96 and 0.97
B11	0.652	0.81
B12	0.809	0.92
B13	0.71	0.807
B14	0.423	0.857
B15	0.701	0.886
B16	0.633	0.8
B17	0.748	0.85
B18	0.759 and 0.743	0.863 and 0.845
B19	0.8	0.91
B20	0.778	0.984
B21	0.855 and 0.788 and 0.824	0.972 and 0.896 and 0.937
B22	0.406	0.823
B23	0.744	0.941
B24	0.798	0.903
B25	0.452	0.916
B26	0.796	0.905
B27	0.447 and 0.402	0.906 and 0.815
B28	0.435 and 0.429	0.881 and 0.869
B29	0.648	0.819

Source: patent publication US20240400654A1
